Here are results for one substance from patent publication US20060199194A1.

The target of experiment [1] is TAU-412 target protein (human) (UniProt P10636). In words: sandwich Immuno Q-Amp assay: capture MN1010, TAU-412 10 ng per well, biotin MN1000 reporter, avidin-biotin-MNVplus template, Q-beta replicase, SYBR Green fluorescence; Superblock blocking.
For experiment [2] the target is unchanged. In words: sandwich Immuno Q-Amp assay: capture MN1010, TAU-412 10 ng per well, biotin MN1000 reporter, avidin-biotin-MNVplus template, Q-beta replicase, SYBR Green fluorescence; Startingblock blocking.

UniProt P10636, sequence (P10636 other isoform, or with tags, fused parts or gaps): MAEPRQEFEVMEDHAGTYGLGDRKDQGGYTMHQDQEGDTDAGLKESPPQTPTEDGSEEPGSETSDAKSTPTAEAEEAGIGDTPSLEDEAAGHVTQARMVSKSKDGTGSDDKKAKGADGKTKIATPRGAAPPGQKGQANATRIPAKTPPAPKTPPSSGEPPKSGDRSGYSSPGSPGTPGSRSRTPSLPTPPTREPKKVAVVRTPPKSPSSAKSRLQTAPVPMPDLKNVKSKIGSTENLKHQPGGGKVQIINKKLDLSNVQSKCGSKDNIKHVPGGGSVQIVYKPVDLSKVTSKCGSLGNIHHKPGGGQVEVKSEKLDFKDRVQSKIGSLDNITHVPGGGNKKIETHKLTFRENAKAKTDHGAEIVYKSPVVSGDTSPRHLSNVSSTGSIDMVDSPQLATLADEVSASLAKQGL

Consider “anti-TAU, biotinylated antibody MN-1000 (Pierce, #MN1000B)”, for which the RT (response time, Superblock blocking) in experiment [1] was determined as 15 min. The RT (response time, starting block blocking) in experiment [2] was 13.5 min.
